Test results reported in PMC6650433, “Evolution of metazoan oxygen-sensing involved a conserved divergence of VHL affinity for HIF1α and HIF2α” (Nature Communications, 2019).
[ ]: non-standard residue; d: D form. The star is where a group is joined. Biotin = O=C1N[C@H]2[C@H](CS[C@H]2CCCCC(=O)*)N1; Hyp = O=C(O)[C@@H]1C[C@@H](O)CN1

Legend:
HA-VHL30 [1] = assay: In vitro pVHL-HIFα binding (pulldown) assay, VHL WT; parameters: species or system human; settings: 1.2 μg biotinylated peptide on streptavidin agarose beads, IVTT HA-VHL30, EBC buffer, two hours at 4 °C, anti-HA immunoblot, qualitative
Procedure: The in vitro pVHL-HIFα binding assay was performed as previously described. HA-VHL30 was expressed in an IVTT rabbit reticulocyte lysate system (Promega, Cat. No. L1170) and incubated with 1.2 μg of biotinylated HIFαOH peptide immobilized on streptavidin agarose beads in 500 μL of EBC buffer (50 mM Tris-HCl pH 8.0, 120 mM NaCl, 0.5% (v/v) NP-40) for two hours at 4 °C. To perform a competition binding assay, 1.8 μg of biotinylated HIFαOH peptide immobilized on streptavidin agarose beads competed with 1 μg of acetylated HIFαOH peptide. Following incubation, beads were washed 4x with NETN buffer (20 mM Tris-HCl pH 8.0, 100 mM NaCl, 1 mM EDTA, 0.5% (v/v) NP-40). Biotinylated peptide was pulled down via streptavidin agarose beads and protein was eluted by boiling beads in sample buffer. Protein levels of HA-VHL30 were determined by immunoblotting.

[2] = target: T1, VHL-elongin B-elongin C (VBC) complex (Homo sapiens, UniProt P40337+Q15369+Q15370); assay: Biolayer interferometry, VBC WT binding to immobilized HIFα peptide; settings: VHL/HIFα binding experiments, Fig. 2b (pulldown) and Fig. 2d (BLI), in words
T1 construct: made in house
T1 sequence (P40337 54-213 limits assumed): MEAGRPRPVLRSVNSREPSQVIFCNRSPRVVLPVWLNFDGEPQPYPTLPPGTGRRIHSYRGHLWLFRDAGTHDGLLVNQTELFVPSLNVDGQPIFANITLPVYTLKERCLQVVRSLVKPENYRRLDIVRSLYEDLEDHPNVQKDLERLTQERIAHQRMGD
T1 sequence (Q15370 whole entry partner): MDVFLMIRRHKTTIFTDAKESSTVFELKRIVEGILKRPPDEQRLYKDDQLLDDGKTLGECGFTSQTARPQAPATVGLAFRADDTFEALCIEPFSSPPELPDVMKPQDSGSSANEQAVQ
T1 sequence (Q15369 17-112 partner limits assumed): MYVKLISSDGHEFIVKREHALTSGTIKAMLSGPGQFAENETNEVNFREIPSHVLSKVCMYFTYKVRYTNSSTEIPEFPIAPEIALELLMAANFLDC
Procedure: The binding affinities of VBC to hydroxylated HIFα peptide was measured by biolayer interferometry using the BLItz system (Pall ForteBio). A 50 μg/mL solution of biotinylated HIFα peptide was prepared in kinetics buffer (20 mM HEPES pH 7.4, 200 mM NaCl, 1 mM DTT, 0.02% (v/v) Tween-20, and 0.5% (w/v) BSA) and immobilized onto streptavidin (SA)-coated biolayer interferometry (BLI) biosensors (Pall ForteBio, Cat. No. 18–5019) over 120 s. Multiple concentrations of purified VBC complex were diluted in kinetics buffer and allowed to associate with immobilized peptide over 120 s. Subsequently, the SA-BLI probe was immersed into kinetics buffer for 120 s to allow for dissociation. Both protein and buffer were chilled on ice immediately before use. The data were analyzed, step corrected, reference corrected, and fit to a global 1:1 binding model. Kd, ka, and kd were calculated using the BLItz Pro software. All measurements were performed in triplicate with independently purified recombinant protein.

VHL F91Y = assay: In vitro hydroxylation and co-immunoprecipitation of HIFα ODD with VHL F91Y; format: binding, human; settings: IVTT 3xFLAG-HIF1α ODD hydroxylated with HIS6-PHD2, anti-FLAG IP, anti-HA immunoblot, qualitative
Procedure: (§1) 3xFLAG-HIFα ODD was expressed via the rabbit reticulocyte lysate system. HIFα ODD was incubated with 15 μg/μL HIS6-PHD2 (181–426) in 200 μL of 40 mM HEPES pH 7.4, 80 mM KCl, 5 mM a-ketoglutarate, 2 mM ascorbic acid, 100 μM FeCl2 tetrahydrate solution at 30 °C for 1 h. Following hydroxylation, 3xFLAG-HIFα was incubated with IVTT VHL30 in 500 μL of wash buffer (40 mM HEPES pH 7.4, 80 mM KCl, 0.05% (v/v) Tween-20, 250 μM EDTA, 1 mM DTT) supplemented with protease inhibitors for 2 h at 4 °C. Following binding, 3xFLAG-HIFα ODD was immunoprecipitated with anti-FLAG antibody immobilized on protein A beads. Protein was eluted by boiling beads in sample buffer. Protein levels of HA-VHL30 were determined by immunoblotting.

HA-VHL30 [3] = assay: In vitro hydroxylation and co-immunoprecipitation of HIFα ODD with VHL WT; format: binding, human; settings: IVTT 3xFLAG-HIFα ODD hydroxylated with HIS6-PHD2 (181–426) for 1 h, anti-FLAG IP, anti-HA immunoblot, compared with the WT ODD, qualitative
Procedure: as §1

[4] = target: VHL-elongin B-elongin C (VBC) complex, wild type, P40337;Q15370;Q15369; assay: biolayer interferometry (BLI); settings: chain shown with the change;, read off a plot

NLE-substituted HIF1α: hydroxylated HIF1α peptide, Met561 substituted with norleucine
levels of HA-VHL pulled down by immobilized biotinylated HIFαOH peptide (affinity for VHL) (HA-VHL30 [1]): did not affect the affinity

MetO2: hydroxylated HIF1α peptide, Met561 completely oxidized to methionine sulfone (MetO2)
levels of HA-VHL pulled down by immobilized biotinylated HIFαOH peptide (affinity for VHL) (HA-VHL30 [1]): further decrease in VHL affinity

HIF2αOH(∆G537): hydroxylated HIF2α peptide with deletion of G537 (Biotin-ELDLETLA[Hyp]YIPMDEDFQ-NH2; SMILES CC[C@H](C)[C@H](NC(=O)[C@H](Cc1ccc(O)cc1)NC(=O)[C@@H]1C[C@@H](O)CN1C(=O)[C@H](C)NC(=O)[C@H](CC(C)C)NC(=O)[C@@H](NC(=O)[C@H](CCC(=O)O)NC(=O)[C@H](CC(C)C)NC(=O)[C@H](CC(=O)O)NC(=O)[C@H](CC(C)C)NC(=O)[C@H](CCC(=O)O)NC(=O)CCCC[C@@H]1SC[C@@H]2NC(=O)N[C@@H]21)[C@@H](C)O)C(=O)N1CCC[C@H]1C(=O)N[C@@H](CCSC)C(=O)N[C@@H](CC(=O)O)C(=O)N[C@@H](CCC(=O)O)C(=O)N[C@@H](CC(=O)O)C(=O)N[C@@H](Cc1ccccc1)C(=O)N[C@@H](CCC(N)=O)C(N)=O)
levels of HA-VHL pulled down by immobilized biotinylated HIFαOH peptide (affinity for VHL) (HA-VHL30 [1]): minor decrease in affinity for VHL

HIF1αOH(D570delinsGE): hydroxylated HIF1α peptide with insertion of Glyn+6 to mimic HIF2α (Biotin-DLDLEMLA[Hyp]YIPMDGDDFQ-NH2; SMILES CC[C@H](C)[C@H](NC(=O)[C@H](Cc1ccc(O)cc1)NC(=O)[C@@H]1C[C@@H](O)CN1C(=O)[C@H](C)NC(=O)[C@H](CC(C)C)NC(=O)[C@H](CCSC)NC(=O)[C@H](CCC(=O)O)NC(=O)[C@H](CC(C)C)NC(=O)[C@H](CC(=O)O)NC(=O)[C@H](CC(C)C)NC(=O)[C@H](CC(=O)O)NC(=O)CCCC[C@@H]1SC[C@@H]2NC(=O)N[C@@H]21)C(=O)N1CCC[C@H]1C(=O)N[C@@H](CCSC)C(=O)N[C@@H](CC(=O)O)C(=O)NCC(=O)N[C@@H](CC(=O)O)C(=O)N[C@@H](CC(=O)O)C(=O)N[C@@H](Cc1ccccc1)C(=O)N[C@@H](CCC(N)=O)C(N)=O)
VHL/HIFα complex stability [2]: does not overtly modulate complex stability

HIF2α T528M: hydroxylated HIF2α peptide with T528M substitution (Biotin-ELDLEMLA[Hyp]YIPMDGEDFQ-NH2; SMILES CC[C@H](C)[C@H](NC(=O)[C@H](Cc1ccc(O)cc1)NC(=O)[C@@H]1C[C@@H](O)CN1C(=O)[C@H](C)NC(=O)[C@H](CC(C)C)NC(=O)[C@H](CCSC)NC(=O)[C@H](CCC(=O)O)NC(=O)[C@H](CC(C)C)NC(=O)[C@H](CC(=O)O)NC(=O)[C@H](CC(C)C)NC(=O)[C@H](CCC(=O)O)NC(=O)CCCC[C@@H]1SC[C@@H]2NC(=O)N[C@@H]21)C(=O)N1CCC[C@H]1C(=O)N[C@@H](CCSC)C(=O)N[C@@H](CC(=O)O)C(=O)NCC(=O)N[C@@H](CCC(=O)O)C(=O)N[C@@H](CC(=O)O)C(=O)N[C@@H](Cc1ccccc1)C(=O)N[C@@H](CCC(N)=O)C(N)=O)
levels of HA-VHL pulled down by immobilized biotinylated HIFαOH peptide (affinity for VHL) (HA-VHL30 [1]): increased affinity for VHL

Bio-HIF1αOH(M561A): hydroxylated HIF1α peptide, Met561 substituted with alanine (Biotin-DLDLEALA[Hyp]YIPMDDDFQ-NH2; SMILES CC[C@H](C)[C@H](NC(=O)[C@H](Cc1ccc(O)cc1)NC(=O)[C@@H]1C[C@@H](O)CN1C(=O)[C@H](C)NC(=O)[C@H](CC(C)C)NC(=O)[C@H](C)NC(=O)[C@H](CCC(=O)O)NC(=O)[C@H](CC(C)C)NC(=O)[C@H](CC(=O)O)NC(=O)[C@H](CC(C)C)NC(=O)[C@H](CC(=O)O)NC(=O)CCCC[C@@H]1SC[C@@H]2NC(=O)N[C@@H]21)C(=O)N1CCC[C@H]1C(=O)N[C@@H](CCSC)C(=O)N[C@@H](CC(=O)O)C(=O)N[C@@H](CC(=O)O)C(=O)N[C@@H](CC(=O)O)C(=O)N[C@@H](Cc1ccccc1)C(=O)N[C@@H](CCC(N)=O)C(N)=O)
levels of HA-VHL pulled down by immobilized biotinylated HIFαOH peptide (affinity for VHL) (HA-VHL30 [1]): decreased affinity for pVHL

B1: HIF1α ODD M561T: IVTT 3xFLAG-HIF1α ODD (387–581) with M561T substitution (protein)
chain: FDKLKKEPDALTLLAPAAGDTIISLDFGSNDTETDDQQLEEVPLYNDVMLPSPNEKLQNINLAMSPLPTAETPKPLRSSADPALNQEVALKLEPNPESLELSFTMPQIQDQTPSPSDGSTRQSSPEPNSPSEYCFYVDSDMVNEFKLELVEKLFAEDTEAKNPFSTQDTDLDLETLAPYIPMDDDFQLRSFDQLS
modifications: hydroxylated in vitro by HIS6-PHD2 (181–426) for one hour before the binding; left off: 3xFLAG, end not stated, kept
notes: IVTT 3xFLAG-HIF1α ODD (387–581) with M561T substitution
HIFα ODD bound by VHL F91Y, compared with VHL WT (VHL F91Y): bound less
affinity of HIFα ODD protein for VHL (HA-VHL co-immunoprecipitated) (HA-VHL30 [3]): decreased affinity

B2: HIF1αODD WT: IVTT 3xFLAG-tagged HIF1α oxygen-dependent degradation domain (387–581), wild type (protein)
chain: FDKLKKEPDALTLLAPAAGDTIISLDFGSNDTETDDQQLEEVPLYNDVMLPSPNEKLQNINLAMSPLPTAETPKPLRSSADPALNQEVALKLEPNPESLELSFTMPQIQDQTPSPSDGSTRQSSPEPNSPSEYCFYVDSDMVNEFKLELVEKLFAEDTEAKNPFSTQDTDLDLEMLAPYIPMDDDFQLRSFDQLS
modifications: hydroxylated in vitro by HIS6-PHD2 (181–426) for one hour before the binding; left off: 3xFLAG, end not stated, kept
notes: IVTT 3xFLAG-tagged HIF1α oxygen-dependent degradation domain (387–581), wild type
HIFα ODD bound by VHL F91Y, compared with VHL WT (VHL F91Y): bound less

B3: HIF2α ODD T528M: IVTT 3xFLAG-HIF2α(390–554) ODD protein with T528M substitution (protein, UniProt Q99814 390-554, looked up, fragment T528M)
chain: FTKLKEEPEELAQLAPTPGDAIISLDFGNQNFEESSAYGKAILPPSQPWATELRSHSTQSEAGSLPAFTVPQAAAPGSTTPSATSSSSSCSTPNSPEDYYTSLDNDLKIEVIEKLFAMDTEAKDQCSTQTDFNELDLEMLAPYIPMDGEDFQLSPICPEERLLAE
modifications: ODD 3xFLAG tag
notes: IVTT 3xFLAG-HIF2α(390–554) ODD protein with T528M substitution
affinity of HIFα ODD protein for VHL (HA-VHL co-immunoprecipitated) (HA-VHL30 [3]): increased the affinity

B4: hydroxylated HIF2α peptide (523–541), biotinylated G537del (peptide)
chain: ELDLETLAPYIPMDEDFQ
koff ([4]; parent: est. 0.0075 s-1): 0.011 s⁻¹
koff ([4]; parent: est. 0.0078): 0.011 s⁻¹
